# Assay results reported in the nanobody polyreactivity screen of Harvey et al. (2022).
# Test: yeast display, Sf9 membrane polyspecificity reagent, FACS + sequencing; frameworks hold sequencing errors
# Summary of the method: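 Using colony PCR, genes from sorted yeast display clones were amplified, then sequenced on MiSeq at 2 × 250 and filtered by CDR length. The clones had been stained with 10% biotinylated, detergent-solubilized Sf9 membrane reagent for 1 hour at 4 °C and sorted by FACS into low and high (top ~1%) gates on anti-HA and streptavidin fluorescence. Polyreactivity labels come from the gate of origin.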
row,Sequence,polyreactivity (PSR sort gate)
1,QVQLEESCGGLVQAGGSHRLICAASGPTIRYNGIGWYRQAPRKEREFLAAISWSGGSTYYADSVKGRFTISRDYAKNTVYLQMNSLKPEDTAVYYCNVDFHWQRFHHISADYDYWGLGTQVTVSS,high polyreactivity
2,QVQLEESGAGLVQAGGRHRLSCPASGFIFDWNAMGWYRQPPGKERELVAAISDDGDSTDYADSVKGRFTISRDNAKNTVYLQMNSLKPEDTAVYSCAANTERVYPCFSFGYWGQGTQVTVSS,low polyreactivity
3,QVQLEESGAGLVQAGGSLRLSCAASVSIFRQYAMGWYRQAPGKERELFAAINYSGGKTYYADSVKGRFTISRDNAKNTVYLQLNSLKPEDTAVYYCAADSVRHYWWAYYYWGQVTQVTVSS,low polyreactivity
4,QVQLEESGGALVQAGGSLRLSCAASGRTFSGNAMGWYRQAPGKERELVAAISSGGSTNYADSVKGRFTISRDNAKNTVYLQMNSLKPEDTAVYYCAADEWRFPSYAYYYWGQGTQVTVSS,low polyreactivity
5,QVQLEESGGCLVQAGGSLRLSCAASGYIFTPYAKGWYRPAPGKEREFVAAITRSGGSTYYADSVKGRFTISRDYAKNTVYLQMNSLKPEDTAVYYCARYANYDKRYDYWGQGTQVTVSS,high polyreactivity
6,QVQLEESGGGFVQAGGSLRLSCAASGSIFYYYVMGLYRQAAGKERELVAALTNSDRTYYADSVKGRFTISRDNAKNTVYLQMTSLKPEDTAVYYCAADYYWSPYYVYQFDYWGQGTQVTVSS,low polyreactivity
7,QVQLEESGGGIVQAGGSLRLRCAAAGRSVYYYAMAWYRQAPGKEREFVADITARGGSTYYADSVKGRFTISRDNAKNSVYLQMNSLKPEDTAVYYCAAYIYVTYYYWGQGTQVTVSS,high polyreactivity
8,QVQLEESGGGIVQAGGSLRLSCAASGRTFKLNAMGLYRQAPGKERELVAAISRNGGSTYYADSVKGRFTISRDNAKNTVFLQMNSLKPEDTAVYYCAAVRHGVSLAGYYWGQGTQVTVSS,high polyreactivity
9,QVQLEESGGGIVQAGGSLRLSCAASGSIFGVYAMGMYRQAPGKERELVAVISRGGTYYADSVKGRFTISRDNAKNTVYLQMHSLKPEDTAVYYCAARTRKSTVFYGLDYWGQGTQVTVSS,high polyreactivity
10,QVQLEESGGGLDQAGGSLRLTCAASGSIFLWNAMGWSRQSPGKERQLVAAISSGTSTIYADSVKGRFTISRDNAKNTVYLQMNSLKREDTAVYYCAARGRKNQRRYGYWGLGTQVTVSS,low polyreactivity
11,QVQLEESGGGLFQAGGSLRLRCAASGSIFHINAMGWYRQAPGKERELVADISHRGGSTYYADSVKGRFTISRDNAKNTVYLQMNSLKPEDTAVYYCAVVHVFYAVYYFSFYTYDYWGQGTQVTVSS,low polyreactivity
12,QVQLEESGGGLGQAGGSLRLTCAASGSIFDTYTMGWYRQATRIEWELVAAITSGTTTTYADSVKGRFTISRDNGLNTVYLKINSLNPEDTAVYYCGARTSGSFDYWGQGPQVTVSS,low polyreactivity
13,QVQLEESGGGLLKEGGSLRLSCAASGRLFYGYTIGRSRQAPGKERELVAAISRNGGSTYYADSVKGRFTISRDNAKNTVYFHMNSLKTEDSAVYYCNAVFSRGYVIKPYDYWGQGTQVTVSS,high polyreactivity
14,QVQLEESGGGLVHAGGSLRLSCAASGFIFKANAMGWYRQAPGKEREFVASISSSGGSTYYADSVKGRFTISRDNAKNTVYLHMNSLKPEDTAVYYCAAYTGYRHSRINLGYWGQGTQVTVSS,high polyreactivity
15,QVQLEESGGGLVHAGGSLRLSCAASGFTCDNYAMGWYRQAPGKERELVAAISNSGGRTYYADSVKGRFTISRDNAKNTVYLQMNSLKPEDTAVYYCTIFKDFDYWGQGTQVTVSS,high polyreactivity
16,QVQLEESGGGLVKAGGSLRLTCAASGIIFVEYAMGWYRQAPGKERELVARIRYSGGSTYYADSVKGRFTISRDNAKNTVYLQMNSLQPEDTAVYYCNALLPYIYDYWGKGTQVTVSS,low polyreactivity
17,QVQLEESGGGLVPAGGILRLSCAASGSIFSPNAIGWYRQAAGKEMELDASISSRGGSTYYADSVKGRFNISRDYAKNTVYLKMNSLKPEDTAVYYCAAAVQTRRGTRFDYWGQGTQVTVSS,low polyreactivity
18,QVQLEESGGGLVQAAGSLRLSSAASGSTFRYYAMGWYRQAPGKDRELVAAITRSRGSTYYADSVKGRFTISRDKAKNHVYLQMNSVKQEDTEVYYCAARGQTGYYSGVGYWGQGTQVTVSS,high polyreactivity
19,QVQLEESGGGLVQAGASLRLSCAASGRTFGSYAMGWYRQAPGKERELVAAISLSAGSTYYADSVKGRFTISRDNAKNTVYLQMNSLKPEDTAVYYCAAGTQWYSHVFIYYYWGQGTQVTVSS,low polyreactivity
20,QVQLEESGGGLVQAGGCLRLSCAASGSIFEWYAMGWYRQAPGKERELVADISSVGSTYYADSVKGRFTISRDNAKNTVYLQMNSLKPEDTAVYYCNTSYIIWYDSWGQGTQVTVSS,low polyreactivity
21,QVQLEESGGGLVQAGGRLRLRCAASATYRYYGMGWYRQQPGNERELVAAISRSGSRTYYADSVKGRFTISRDNAKNTVYLQMNSLKPEESAFYYCAASSVYYGYDYWGQGTQVTVSS,high polyreactivity
22,QVQLEESGGGLVQAGGRLRLSCAASGFTFGRYTMGWYRHAPGKERELVAAITWTGGRTYYADSVKGRFTISRDNAKNTVYLQMNSLKPEDTAVYYCAADTTIIIAQSEDDLWGQGTQVTVSS,high polyreactivity

row,Sequence,polyreactivity (PSR sort gate)
1,QVQLEESGGGLVQAGGRLRLSCAASGSIFTGYTMGWYRQAPGKERELVASISRRGGRTYYADSVKGRFTISRDNAKNTVYLQMNSLKPEDTAVYYCAVDRVPWRYQDSYNYWGQGTQVTVSS,high polyreactivity
2,QVQLEESGGGLVQAGGRLRLSCAASGSTFVDYAMGWYRQAPGKQRELVAAISWRGGSTYYADSVKGRFTISRDNAKKTVYLQMNSLKPEDTAVYYCAAEHSGRSPYGYGYWGQGTQVTVSS,high polyreactivity
3,QVQLEESGGGLVQAGGRLRLTCAASGRTFFGYPMGWYRQAPGKERELVAAITSSGGRTYYADSVKGRFTISRDNPKNTDYLQMNSLKPEDTAVYYCAARRYRLSTPEFNYWGQGTQVTVSS,high polyreactivity
4,QVQLEESGGGLVQAGGSLRISCAASGKIFSYNAMGWYRHAPGKERELVAAISRSGGSTYYADSVKGRFTISRDNAKNTVYLQMNSLKPEDTAVYYCAADWRGRKYDYWGQVTQVTVSS,high polyreactivity
5,QVQLEESGGGLVQAGGSLRISCAASGRTFYVNAMGRSRQAPGKERELVAAIRYSDGRTYYADSVKGRFTISRDNAKNTVYLQMNSLKPEDTAVYYCAADTRFISRENYWGQGTQVTVSS,high polyreactivity
6,QVQLEESGGGLVQAGGSLRISCAAYGSTFYYNVMGWYRQAPGKERELVAAITWRGDITYYADSVKGRFTISRDNAKYNVYLQMKCLKPEDTAVFYCAKRYQPSYRSNFWGEGTQVTVSS,low polyreactivity
7,QVQLEESGGGLVQAGGSLRLICAASGFIFLYYAMGWYRQAPGKERELVAAIDYSGGSTNYADSVKGRFTISRDNAKNTVYLQMHSLKPEDTAVYFFNAEYTWHRGYDYWGQGTQVTVSS,low polyreactivity
8,QVQLEESGGGLVQAGGSLRLICAASGLTFPPNSMRWYRQATGKERELVADSGGSTNYADSVKGRFTISRDNAKNNVYLQMNSLKPEDTAVYYCAAPPYSDGQWDDYWGQGTQVTVSS,low polyreactivity
9,QVQLEESGGGLVQAGGSLRLICAASGLTFYSYAMGWYRQAPGKERELVATIRWSGGSTYYADSVKGRFTISRDNANNTVYLQMNSLKPEDTAVYYCNKRRYPVGSLFDYWGQGTQVTVSS,low polyreactivity
10,QVQLEESGGGLVQAGGSLRLICAASGSTFYPNAMGWYRQAPGKERELVAAITDSVGTTNYADSVKGRFTISRDNAKNTVYLQMNSLKPEDTAVYYCAKVKSYWNGYRYYYWGHGTQVTVSS,low polyreactivity
11,QVQLEESGGGLVQAGGSLRLSCAASGAIFDGYGMGGYSQAPGQERELVAAIRWGDGITYYADSVKGRFTISRDNAKTTVYLQMNRLKPDDTAVYYCAAVQHGHEPRVQASYDYWGQGTQVTVSS,low polyreactivity
12,QVQLEESGGGLVQAGGSLRLSCAASGFIFGKNDMGWYRQAPWKERELVAAITIGGSTNYADSVKGRFTISRDNAKNTVYLQMNSLKPEDTAVYYCNADSYHYGTSLYNYWGQGTQVTVSS,low polyreactivity
13,QVQLEESGGGLVQAGGSLRLSCAASGFIFLLNFMGWYRQAPAKDRELVAGNRSSTASTYYADSVKGRFTISRDNAKNTFYLEMNCLKPEDTAVSYCAAVSGWQYEYYSWGQGTQVTVSS,low polyreactivity
14,QVQLEESGGGLVQAGGSLRLSCAASGFIFTPYAMGWYRQAPGKERELVAAISRSGGSTYYADSVKGRFTISRDNAKNTVYLQMNSLKPEDTAVYYCAADVYRTAYYYGSYYWGQGTQVTVSS,high polyreactivity
15,QVQLEESGGGLVQAGGSLRLSCAASGFIFYIYAMGWYRQAPGKERELVAAITSGGSTNYADSVKGRFTITRDNAKNTVYLQMNSLKPEDTAVYYCAADSYYGYDYWGQVTQVTVSS,low polyreactivity
16,QVQLEESGGGLVQAGGSLRLSCAASGFIITGYTMGWYRQAPGKERELVAVISYSGGNTYYADSVKGRFTSSRDNEKNTVYLQMISVKPDYTAVYYCNKLTYKGYEYWGQGTQVNVSS,high polyreactivity
17,QVQLEESGGGLVQAGGSLRLSCAASGFIITWYTMGWYRQAPGKERELVAAITSGGNTNYADSVKGRFTISRDNAKNTVYLQMNCLKPEDTAVYYCARGYLASRLKFAKYDYWGQGTQVTVSS,high polyreactivity
18,QVQLEESGGGLVQAGGSLRLSCAASGFTFFQYAMGWYRQAPGKERELVAAITSGVSTNYADSVKGRFTISRDNAKNTVYVQMNSLKPEDTAVYYCAADPRSLQSWRGEFAGEYWGQGTQVTVSS,low polyreactivity
19,QVQLEESGGGLVQAGGSLRLSCAASGFTFFSYYAMGWYIQAPGKERELVATITSGASTNYADSVKGRFTISRDNAKNTVYLQMNSLKPEDTAVYYCAAAYFYWRVDKYYYWGQGTQVTVSS,low polyreactivity
20,QVQLEESGGGLVQAGGSLRLSCAASGFTFGGYAMGWYRQAPGKERELVAAITGSGGNTFYADSVKGRFTISRDYAKNTVYLQMNCLKPEDTAVYYCAKSWYPWSSYGYYRRYDSWGQGTQVTLSS,low polyreactivity
21,QVQLEESGGGLVQAGGSLRLSCAASGFTFLYNAMGWYRQAPGKERELVASINSGGSTNYADSVKGRVTISRDNAKNTVYLQMNSLKPEDTAVYYCNAKRHVRKGDYWGQGTQVTVSS,low polyreactivity
